The source of these data is patent publication US10975142B2, “Endotrophin neutralization and use thereof” (THE BOARD OF REGENTS OF THE UNIVERSITY OF TEXAS SYSTEM, priority 2013, dated 2021).

In one assay the test system is PyMT mice. The assay can be described thus: high dosage cisplatin in PyMT mice. Format: in vivo, mouse. The note with it: cisplatin 2.5 mg/kg, ip. twice a week. Here is the method: (§1) FIGS. 20A-20C. Endotrophin overexpression confers cisplatin resistance in PyMT mice. FIG. 20A. 10-weeks-aged PyMT and PyMT/endotrophin (PyMT/ETP) mice were given high dosage of cisplatin (2.5 mg/kg, ip., 2 times/week). Tumor growth was determined by caliper measurements. Data represent mean±SD (n=7-10/group). ***p<0.001, PyMT/CIS vs. PyMT/ETP/CIS by 2-way ANOVA. FIGS. 20B-20C. A piece of tumors taken from PyMT (Ctrl-tumor) and PyMT/endotrophin (ETP^+-tumor) mice were implanted into isogenic wild-type hosts. Cisplatin (1 mg/kg, ip., 2 times/week) were injected at 3-weeks post implantation for tumor progression. Tumor volume was determined by caliper measurement. […] Data represent mean±SD (n=7-8/group). *p<0.05 vs. Ctrl-tumors by 2-way ANOVA. Representative images were taken at 70-days post implantation. Scale: 10 mm.

For a further assay, the system named is PyMT/endotrophin mice. The assay can be described thus: high dosage cisplatin in PyMT/endotrophin mice. Format: in vivo, mouse. As to conditions: cisplatin 2.5 mg/kg, ip. twice a week. Here is the method: as §1
For the next assay, the system named is endotrophin+-tumors. The assay can be described thus: allografts of tumor pieces (Ctrl-tumor, ETP+-tumor) in wild-type hosts, cisplatin. Format: in vivo, mouse. As to conditions: cisplatin 1 mg/kg, ip. twice a week. Here is the method:
as §1

The next assay deals with T1, ETP (Mus musculus, UniProt E9PWQ3).
T1 sequence (E9PWQ3 with tags, fused parts or gaps limits assumed): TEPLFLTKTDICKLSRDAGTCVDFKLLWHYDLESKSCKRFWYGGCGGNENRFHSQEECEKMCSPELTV
The assay can be described thus: in vivo Matrigel bioassay (stromal cell recruitment into plugs). The note with it: ETP 100 ng/plug, antibody 20 μg/plug, 2 days after implantation. The procedure:
FIGS. 7A-7I: ETP acts as a chemokine augmenting tumor growth. […] Tumor volume was determined 1 month after implantation (representative images). Data represent mean±SEM (n=5 per group). ***P<0.001, unpaired t test. (FIG. 7B) In vivo Matrigel bioassay. Matrigel (50 μl) was mixed with ETP (100 ng/plug) or PBS and implanted into WT mice in the presence of IgG, 1D11, or 10B6 (20 μg/plug). 2 days after implantation, plugs were excised and stained for FIG. 7H & FIG. 7E. Scale bars: 100 μm. (FIGS. 7C-7H) Cancer cells were plated in the bottom chamber 1 day prior to seeding MS-1 cells (5×10^5 cells/well) and macrophages (1×10^5 cells/well) atop the membrane chamber in Transwell and incubated for 18-24 hours (FIG. 7C). (FIGS. 7D, 7E, 7F, 7G) Representative images of multiple independent experiments. Scale bars: 100 μm. (FIG. 7H) Quantitation (mean±SEM; n=3 per group). ***P<0.001, […], unpaired t test. (FIG. 7I) MS-1 migration assay. MS-1 cells (5×10^5 cells/well) were plated atop the chamber in Transwell and incubated for 24 hours. Chemotaxis was set up by following cell migration from DMEM/serum-free to DMEM/2% FBS/PBS or DMEM/2% FBS/ETP protein (1 μg/well). Images are representative of multiple independent experiments. Data represent mean±SEM (n=3 per group). ***P=0.008, unpaired t test. Scale bars: 100 μm.

A further assay has as its system MS-1 cells. The assay can be described thus: in vitro angiogenesis assay (tubule formation on Matrigel). Format: cell-based, mouse. The note with it: 10B6 10 μg/well, 3 hours. The procedure:
FIGS. 17A-17B. Endotrophin effects on endothelial cell migration. FIG. 17A. in vivo Matrigel bioassays were performed as described in FIG. 6J. Matrigel plugs were analyzed by H&E and immunostaining for CD31 (endothelial cell marker). Scale bars: 200 μm (H&E), and 50 μm (CD31). FIG. 17B. in vitro Angiogenesis assay. MS-1 cells (5×10^4 cells/well) were plated in triplicate on the matrigel coated 12-well plates. Tubule formation was assessed 3 hours after incubation with conditioned media derived from H293 or H293-endotrophin overexpressing cells in the presence or absence of 10B6 (10 μg/well). Scale bars: 500 μm.
A total 300 μl/well of growth factor reduced matrigel (BD biosciences) was plated into 12 well plates. MS-1 cells (5×10^4) were seeded and images were acquired 3-4 hours after incubation with the conditioned media indicated.

Assay [1] deals with diet induced obese (DIO) mice. The assay can be described thus: diet induced obese mice, serum and hepatic lipid parameters. Format: in vivo, mouse. Here is the method:
FIGS. 26A-26G: Endotrophin neutralization improves the metabolic phenotype. FIG. 26A. Two cohorts of mice (n=8) were exposed to high fat diet for 45 days after weaning. At the indicated time points (arrowheads), mice were treated with anti-endotrophin monoclonal antibodies (100 µg/mouse) or equivalent amounts of non-immune antibody. Body weights were monitored. FIG. 26B. Plasma Triglycerides and FIG. 26C. plasma free fatty acids (NEFAs) and FIG. 26D. plasma cholesterol were measured. FIG. 26E. Hepatic triglycerides and FIG. 26F. hepatic cholesterol were measured. Significant differences as indicated by unpaired student t-test. FIG. 26G. […] Scale bar=25 μm.
To evaluate the therapeutic potential of endotrophin neutralizing monoclonal antibodies on lipid parameters, a separate cohort of diet induced obese (DIO) mice were chronically treated with either IgG control or 10B6 (rat anti-mouse endotrophin monoclonal antibody) via intraperitoneal injection at 2 weeks after high-fat diet (HFD) challenge and maintained them on a HFD with antibody treatment for another 4 weeks, similar to the experiment described in FIG. 24.

Entries after “also recorded” stand apart in the source; their conditions may differ.

In the case of `N.N.[Cl][Pt][Cl]` [cisplatin, cis-diammine-dichloro-platinum], the “primary tumor growth of PyMT mice” value in the assay on PyMT mice is listed as “effectively curbed”. For the same molecule, the “response of PyMT/endotrophin mice to cisplatin treatment” value in the assay with PyMT/endotrophin mice is on record as “resistant”. Besides, the “response of endotrophin+-tumors compared to control (Ctrl)-tumors” value in the assay on endotrophin+-tumors was “more resistant; also recorded: increased cisplatin resistance”.

B1: 10B6: rat anti-mouse endotrophin monoclonal antibody; light chain variable SEQ ID NO: 2, heavy chain variable SEQ ID NO: 4 (antibody, V domains shown)
VH: QVQLQQSGPELAKPGSSVKISCKASGYTFTSYEMHWIKQRPGQGLEWIGYIYPESGSTGYNEKFKGKATLTVDKSSPTAYMQLSSLTPDNSAVYFCTRGLRVLGYVMDVWGHGTSVTVSS
VL: DVQLTQSPSFLSASVGDRVTINCKASQNINKYLNWYQQKLGEAPKRLIYNTNNLQTGIPSRFSGSASGTDYTLTISSLHPEDFATYFCLQHSSLYTFGAGTKLELK
On to B1, for which the “chemokine activity of ETP (stromal cell recruitment into Matrigel plugs)” value with ETP is listed as “completely blocked”. Moreover, the “vasculature structure (tubule) formation induced by conditioned media from ETP-overexpressing HEK-293T cells” value in the assay with MS-1 cells is listed as “completely blocked”. Further, in assay [1] (10B6 vs IgG), the hepatic cholesterol levels result is reported as “comparable”, the “levels of hepatic triglycerides” value is “improved”, the “levels of serum triglyceride” value is reported as “dramatically improved” and the serum cholesterol levels result is recorded as “less affected”. Also, in assay [1] (10B6 vs IgG), the “serum free fatty acids” value is given as “dramatically improved”. Besides, in assay [1] (H&E stains, 10B6 vs IgG control), the hepatic lipid accumulation result is on record as “significantly reduced”.
